Measured values as given in PMC5581300.
Read-outs that look alike come from different tables or passages of the source.

Assays:
[1] = molecular target: Plasma Membrane Calcium ATPase 4 (mouse (endogenous in sperm)) (UniProt Q6Q477); assay: FRET or BRET
[2] = molecular target: Plasma Membrane Calcium ATPase 4 (mouse (endogenous in sperm)) (UniProt Q6Q477); assay: FRET or BRET; remark: listed apart in the source

Chain of UniProt Q6Q477 (Q6Q477 whole entry): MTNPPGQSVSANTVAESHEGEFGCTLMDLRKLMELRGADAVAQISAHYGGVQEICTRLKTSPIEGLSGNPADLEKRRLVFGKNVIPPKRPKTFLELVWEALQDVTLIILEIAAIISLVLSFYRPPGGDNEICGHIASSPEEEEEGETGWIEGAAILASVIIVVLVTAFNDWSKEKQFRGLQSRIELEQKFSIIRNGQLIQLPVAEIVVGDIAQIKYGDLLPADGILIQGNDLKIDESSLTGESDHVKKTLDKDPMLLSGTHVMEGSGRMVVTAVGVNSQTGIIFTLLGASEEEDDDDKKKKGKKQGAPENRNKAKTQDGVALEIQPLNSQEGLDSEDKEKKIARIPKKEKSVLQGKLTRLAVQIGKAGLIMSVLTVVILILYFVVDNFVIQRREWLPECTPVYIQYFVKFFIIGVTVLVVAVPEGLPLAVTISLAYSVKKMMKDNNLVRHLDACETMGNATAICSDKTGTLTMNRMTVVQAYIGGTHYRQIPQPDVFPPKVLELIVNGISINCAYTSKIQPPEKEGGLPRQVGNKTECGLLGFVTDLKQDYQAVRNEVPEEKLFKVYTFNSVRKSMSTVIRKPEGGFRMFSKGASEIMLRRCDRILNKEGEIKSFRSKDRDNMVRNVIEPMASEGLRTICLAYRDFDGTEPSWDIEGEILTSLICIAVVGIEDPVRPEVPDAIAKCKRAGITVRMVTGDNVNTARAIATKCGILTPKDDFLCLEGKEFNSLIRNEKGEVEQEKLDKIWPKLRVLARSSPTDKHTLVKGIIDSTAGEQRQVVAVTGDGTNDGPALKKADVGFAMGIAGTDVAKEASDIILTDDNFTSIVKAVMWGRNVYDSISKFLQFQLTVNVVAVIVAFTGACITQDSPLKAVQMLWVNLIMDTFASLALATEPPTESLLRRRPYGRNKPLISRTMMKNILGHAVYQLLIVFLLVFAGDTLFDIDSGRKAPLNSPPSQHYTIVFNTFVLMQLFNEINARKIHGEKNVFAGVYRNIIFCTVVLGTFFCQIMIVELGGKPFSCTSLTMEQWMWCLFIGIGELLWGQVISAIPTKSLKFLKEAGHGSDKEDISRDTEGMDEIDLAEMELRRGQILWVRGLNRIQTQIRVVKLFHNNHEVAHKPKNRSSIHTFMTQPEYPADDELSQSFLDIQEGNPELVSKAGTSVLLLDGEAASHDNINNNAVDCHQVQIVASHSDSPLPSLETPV

FRET efficiency [1]: 6%
FRET efficiency [2]: 24%
Substance: neuronal nitric oxide synthase (from UniProt Q9Z0J4 1-1429) (enzyme)
